The text below walks through data of the supplement of paper PMC5998384.

Data set [1] deals with HeLa Kyoto. The data set is described as follows: thermal stability score vs G1/S (z-score of summed log2 fold changes over temperatures); higher = more thermally stable than in G1/S.
For data set [2], the system named is HeLa Kyoto. Kind of data set: solubility change mitosis vs G1/S (difference of NP-40 vs SDS log2 ratios) (log2 ratio difference); higher = more soluble in mitosis.
Data set [3] concerns HeLa Kyoto. Kind of data set: solubility in G1/S (NP-40 vs SDS abundance) (log2 ratio); higher = more soluble. The note with it: cell cycle stage: G1/S.
Data set [4] deals with HeLa Kyoto. The data set is described as follows: melting temperature (median over replicates), in situ; higher = more thermally stable.
The mark [5] stands for this setting: cell cycle stage: early G1 (4.5 h after nocodazole release).
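Wherever melting temperature (median over replicates), in situ is given: HeLa Kyoto cells synchronized by double thymidine or nocodazole block, proteins quantified by TMT10plex mass spectrometry, three independent biological replicates.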
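Wherever solubility change mitosis vs G1/S (difference of NP-40 vs SDS log2 ratios) is given: synchronized HeLa Kyoto cells (double thymidine block for G1/S, nocodazole release for mitosis), protein amounts in NP-40 versus SDS lysates quantified by mass spectrometry, three biological replicates.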
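Wherever solubility in G1/S (NP-40 vs SDS abundance) is given: HeLa Kyoto cells arrested at G1/S by double thymidine block, proteins quantified by TMT10plex mass spectrometry in mild NP-40 versus SDS extracts, three biological replicates.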
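Wherever thermal stability score vs G1/S (z-score of summed log2 fold changes over temperatures) is given: synchronized HeLa Kyoto cells, proteins quantified by TMT10plex mass spectrometry, three biological replicates, mitosis taken 0.5 h after nocodazole release, G1/S directly after double thymidine block.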

For “MNLFNLDRFRFEKRNKIEEAPEATPQPSQPGPSSPISLSAEEENAEGEVSRANTPDSDITEKTEDSSVPETPDNERKASISYFKNQRGIQYIDLSSDSEDVVSPNCSNTVQEKTFNKDTVIIVSEPSEDEESQGLPTMARRNDDISELEDLSELEDLKDAKLQTLKELFPQRSDNDLLKLIESTSTMDGAIAAALLMFGDAGGGPRKRKLSSSSEPYEEDEFNDDQSIKKTRLDHGEESNESAESSSNWEKQESIVLKLQKEFPNFDKQELREVLKEHEWMYTEALESLKVFAEDQDMQYVSQSEVPNGKEVSSRSQNYPKNATKTKLKQKFSMKAQNGFNKKRKKNVFNPKRVVEDSEYDSGSDVGSSLDEDYSSGEEVMEDGYKGKILHFLQDASIGELTLIPQCSQKKAQKITELRPFNSWEALFTKMSKTNGLSEDLIWHCKTLIQERDVVIRLMNKCEDISNKLTKQVTMLTGNGGGWNIEQPSILNQSLSLKPYQKVGLNWLALVHKHGLNGILADEMGLGKTIQAIAFLAYLYQEGNNGPHLIVVPASTIDNWLREVNLWCPTLKVLCYYGSQEERKQIRFNIHSRYEDYNVIVTTYNCAISSSDDRSLFRRLKLNYAIFDEGHMLKNMGSIRYQHLMTINANNRLLLTGTPVQNNLLELMSLLNFVMPHMFSSSTSEIRRMFSSKTKSADEQSIYEKERIAHAKQIIKPFILRRVKEEVLKQLPPKKDRIELCAMSEKQEQLYLGLFNRLKKSINNLEKNTEMCNVMMQLRKMANHPLLHRQYYTAEKLKEMSQLMLKEPTHCEANPDLIFEDMEVMTDFELHVLCKQYRHINNFQLDMDLILDSGKFRVLGCILSELKQKGDRVVLFSQFTMMLDILEVLLKHHQHRYLRLDGKTQISERIHLIDEFNTDMDIFVFLLSTKAGGLGINLTSANVVILHDIDCNPYNDKQAEDRCHRVGQTKEVLVIKLISQGTIEESMLKINQQKLKLEQDMTTVDEGDEGSMPADIATLLKTSMGL [SMARCAD1]”, the thermal stability score in the data set with HeLa Kyoto [1] (setting [5]) was determined as 2.18; in the data set on HeLa Kyoto [1] (cell cycle stage: mitosis), 3.89. Besides, in the data set on HeLa Kyoto [2], the “solubility change mitosis (log2)” value is -0.124. In the data set on HeLa Kyoto [3], the “solubility in G1/S (log2)” value is -0.1. Besides, the values for the melting temperature in the data set with HeLa Kyoto [4] (cell cycle stage: G1/S) and in the data set with HeLa Kyoto [4] (cell cycle stage: mitosis) were 48.4 °C and 49.7 °C, respectively.
Regarding “MEFAAENEGKSGGGLHSVAEGVRLSPEPGREGVRDLAGAEEFGGGEEGTGLTGIKEIGDGEEGSGQRPEEIPMDLTVVKQEIIDWPGTEGRLAGQWVEQEVEDRPEVKDENAGVLEVKQETDSSLVVKEAKVGEPEVKEEKVKEEVMDWSEVKEEKDNLEIKQEEKFVGQCIKEELMHGECVKEEKDFLKKEIVDDTKVKEEPPINHPVGCKRKLAMSRCETCGTEEAKYRCPRCMRYSCSLPCVKKHKAELTCNGVRDKTAYISIQQFTEMNLLSDYRFLEDVARTADHISRDAFLKRPISNKYMYFMKNRARRQGINLKLLPNGFTKRKENSTFFDKKKQQFCWHVKLQFPQSQAEYIEKRVPDDKTINEILKPYIDPEKSDPVIRQRLKAYIRSQTGVQILMKIEYMQQNLVRYYELDPYKSLLDNLRNKVIIEYPTLHVVLKGSNNDMKVLHQVKSESTKNVGNEN [ZNHIT6]”, the thermal stability score came out at 1.3 in the data set with HeLa Kyoto [1] (setting [5]) and 2.06 in the data set with HeLa Kyoto [1] (cell cycle stage: mitosis). In addition, the “solubility change mitosis (log2)” value in the data set with HeLa Kyoto [2] was -0.116. For the same sequence, the “solubility in G1/S (log2)” value with HeLa Kyoto [3] was 0.0397. Also, the melting temperature was 48.4 °C in the data set on HeLa Kyoto [4] (cell cycle stage: G1/S) and 50.2 °C in the data set with HeLa Kyoto [4] (cell cycle stage: mitosis).
In the case of “MSDGFDRAPGAGRGRSRGLGRGGGGPEGGGFPNGAGPAERARHQPPQPKAPGFLQPPPLRQPRTTPPPGAQCEVPASPQRPSRPGALPEQTRPLRAPPSSQDKIPQQNSESAMAKPQVVVAPVLMSKLSVNAPEFYPSGYSSSYTESYEDGCEDYPTLSEYVQDFLNHLTEQPGSFETEIEQFAETLNGCVTTDDALQELVELIYQQATSIPNFSYMGARLCNYLSHHLTISPQSGNFRQLLLQRCRTEYEVKDQAAKGDEVTRKRFHAFVLFLGELYLNLEIKGTNGQVTRADILQVGLRELLNALFSNPMDDNLICAVKLLKLTGSVLEDAWKEKGKMDMEEIIQRIENVVLDANCSRDVKQMLLKLVELRSSNWGRVHATSTYREATPENDPNYFMNEPTFYTSDGVPFTAADPDYQEKYQELLEREDFFPDYEENGTDLSGAGDPYLDDIDDEMDPEIEEAYEKFCLESERKRKQ [PAIP1]”, the thermal stability score is 1.49 in the data set on HeLa Kyoto [1] (setting [5]) and 1.64 in the data set with HeLa Kyoto [1] (cell cycle stage: mitosis). For the same sequence, the “solubility change mitosis (log2)” value in the data set with HeLa Kyoto [2] came to 0.154. Also, in the data set with HeLa Kyoto [3], the “solubility in G1/S (log2)” value was found to be 0.466. Besides, the melting temperature with HeLa Kyoto [4] (cell cycle stage: G1/S) worked out at 52.9 °C; in the data set on HeLa Kyoto [4] (cell cycle stage: mitosis), 52.8 °C.
For the sequence “MAEAALLLLPEAAAERDAREKLALWDRRPDTTAPLTDRQTDSVLELKAAAENLPVPAELPIEDLCSLTSQSLPIELTSVVPESTEDILLKGFTSLGMEEERIETAQQFFSWFAKLQTQMDQDEGTKYRQMRDYLSGFQEQCDAILNDVNSALQHLESLQKQYLFVSNKTGTLHEACEQLLKEQSELVDLAENIQQKLSYFNELETINTKLNSPTLSVNSDGFIPMLAKLDDCITYISSHPNFKDYPIYLLKFKQCLSKALHLMKTYTVNTLQTLTSQLLKRDPSSVPNADNAFTLFYVKFRAAAPKVRTLIEQIELRSEKIPEYQQLLNDIHQCYLDQRELLLGPSIACTVAELTSQNNRDHCALVRSGCAFMVHVCQDEHQLYNEFFTKPTSKLDELLEKLCVSLYDVFRPLIIHVIHLETLSELCGILKNEVLEDHVQNNAEQLGAFAAGVKQMLEDVQERLVYRTHIYIQTDITGYKPAPGDLAYPDKLVMMEQIAQSLKDEQKKVPSEASFSDVHLEEGESNSLTKSGSTESLNPRPQTTISPADLHGMWYPTVRRTLVCLSKLYRCIDRAVFQGLSQEALSACIQSLLGASESISKNKTQIDGQLFLIKHLLILREQIAPFHTEFTIKEISLDLKKTRDAAFKILNPMTVPRFFRLNSNNALIEFLLEGTPEIREHYLDSKKDVDRHLKSACEQFIQQQTKLFVEQLEEFMTKVSALKTMASQGGPKYTLSQQPWAQPAKVNDLAATAYKTIKTKLPVTLRSMSLYLSNKDTEFILFKPVRNNIQQVFQKFHALLKEEFSPEDIQIIACPSMEQLSLLLLVSK [COG3]”, the thermal stability score in the data set with HeLa Kyoto [1] (setting [5]) was found to be 0.629; in the data set on HeLa Kyoto [1] (cell cycle stage: mitosis), 1.07. Besides, in the data set on HeLa Kyoto [2], the “solubility change mitosis (log2)” value was -0.0733. In addition, the “solubility in G1/S (log2)” value with HeLa Kyoto [3] worked out at 0.235. The melting temperature in the data set with HeLa Kyoto [4] (cell cycle stage: G1/S) was 50.9 °C; in the data set with HeLa Kyoto [4] (cell cycle stage: mitosis), 49.7 °C.
For the sequence “MMAAVPPGLEPWNRVRIPKAGNRSAVTVQNPGAALDLCIAAVIKECHLVILSLKSQTLDAETDVLCAVLYSNHNRMGRHKPHLALKQVEQCLKRLKNMNLEGSIQDLFELFSSNENQPLTTKVCVVPSQPVVELVLMKVLGACKLLLRLLDCCCKTFLLTVKHLGLQEFIILNLVMVGLVSRLWVLYKGVLKRLILLYEPLFGLLQEVARIQPMPYFKDFTFPSDITEFLGQPYFEAFKKKMPIAFAAKGINKLLNKLFLINEQSPRASEETLLGISKKAKQMKINVQNNVDLGQPVKNKRVFKEESSEFDVRAFCNQLKHKATQETSFDFKCSQSRLKTTKYSSQKVIGTPHAKSFVQRFREAESFTQLSEEIQMAVVWCRSKKLKAQAIFLGNKLLKSNRLKHLEAQGTSLPKKLECIKTSICNHLLRGSGIKTSKHHLRQRRSQNKFLRRQRKPQRKLQSTLLREIQQFSQGTRKSATDTSAKWRLSHCTVHRTDLYPNSKQLLNSGVSMPVIQTKEKMIHENLRGIHENETDSWTVMQINKNSTSGTIKETDDIDDIFALMGV [NEPRO]”, the thermal stability score with HeLa Kyoto [1] (setting [5]) was -0.703; with HeLa Kyoto [1] (cell cycle stage: mitosis), -1.65. In addition, the “solubility change mitosis (log2)” value in the data set with HeLa Kyoto [2] worked out at 0.574. In addition, in the data set on HeLa Kyoto [3], the “solubility in G1/S (log2)” value was -0.993. Further, the values for the melting temperature in the data set with HeLa Kyoto [4] (cell cycle stage: G1/S) and in the data set with HeLa Kyoto [4] (cell cycle stage: mitosis) were 49.7 °C and 50.3 °C, respectively.
